Results on one substance are retold here after patent US20240059759A1.

Test [1] addresses SARS-CoV-2 RBD (SinoBiological, Cat. No. 40592-V02H) (SARS-CoV-2) (UniProt P0DTC2).
Test [2] has the same target. As to the kind of experiment: ELISA on RBD.

By EC50 is commonly meant the concentration at which the effect is half-maximal. In the case of VHH-72 D61S, the fold enhanced binding in test [1] is 3 fold. Also, the half-maximal effective concentration (EC50) in test [2] turned out to be 0.17 µg/mL.
